Substitutions are numbered along the chain they refer to. Names and notes keep the numbering of the source. Values belong to the binder of their own block, whether it stands above or below them.
Tests used:
human CD47 protein [1] = target: T1, human CD47 protein (human, UniProt Q08722 19-139, limits assumed); test: SPR Biacore, purified IgG Fc-captured, human CD47 analyte 0.3125-10 nM
T1 construct: also called human CD47 antigen
Description: Affinity measurement of purified humanized IgGs. The affinity of purified antibody binding to human CD47 was individually determined using a Surface Plasmon Resonance (SPR) biosensor, Biacore® T200/8K (GE Healthcare). Antibodies were captured on the sensor chip through Fc capture method. Human CD47 protein was used as the analyte. The data of dissociation (kd) and association (ka) rate constants were obtained using Biacore T200/8K evaluation software. The equilibrium dissociation constants (KD) were calculated from the ratio of kd over ka.

human CD47 protein [2] = target: T1, human CD47 protein; test: SPR Biacore, supernatant antibody Fc-captured, human CD47 analyte 5 nM
Method: Production and affinity ranking of humanized antibodies. The designed plasmids of heavy chain and light chain were sent for 3 mL transfection following GenScript's SOP. For affinity ranking, Antibodies were captured on the sensor chip through Fc capture method. Human CD47 protein was used as the analyte. The surface was regenerated before the injection of another antibody. The process was repeated until all antibodies were analyzed. The off-rates of antibodies were obtained from fitting the experimental data locally to 1:1 interaction model using the Biacore® T200/8K evaluation software. The antibodies were ranked by their dissociation rate constants (off-rates, kd).

T1 sequence (Q08722 19-139 limits assumed): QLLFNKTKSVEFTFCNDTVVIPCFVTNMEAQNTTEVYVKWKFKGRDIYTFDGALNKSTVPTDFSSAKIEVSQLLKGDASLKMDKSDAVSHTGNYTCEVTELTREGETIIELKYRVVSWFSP

- Kd (human CD47 protein [2]): 839 pM
- koff (human CD47 protein [2]): 0.005 s⁻¹
- kon (human CD47 protein [2]): 5.96e+06 M⁻¹ s⁻¹
B2: VH4+VL1 (antibody, human IgG4 S228P, kappa, V domains shown)
VH: QVQLVQSGAEVKKPGASVKVSCKASGYTFTSSVIHWVKQAPGQGLEWLGYINPYSDGTKFNEKCKIRATMTSDKSISTAYMELSRLRSDDTAVYYCARGLIGTRYDSWFAYWGQGTLVTVSS
VL: DIQMTQSPSSLSASVGDRVTITCRTSQDINNYLNWYQQKPGKAPKLLIYYTSRLHSGVPSRFSGSGSGTDFTFTISSLQPEDIATYYCQQGNTLPYTFGGGTKVEIKR
notes: Humanized IgG, hIgG4 CH (S228P) and human kappa CL; leader residues 1-19 of each entry left out; Tested from supernatant; also called U0959FD090-VH4 + U0959FD090-VL1

- Kd (human CD47 protein [2]): 274 pM
- koff (human CD47 protein [2]): 0.00137 s⁻¹
- kon (human CD47 protein [2]): 5e+06 M⁻¹ s⁻¹
B3: VH1+VL3 (antibody, human IgG4 S228P, kappa, V domains shown)
VH: B2 VH with K38R, L48M, A68V, S72R, K74T
VL: B2 VL with P44V, F71Y, Y87F
notes: Humanized IgG, hIgG4 CH (S228P) and human kappa CL; leader residues 1-19 of each entry left out; Tested from supernatant; also called U0959FD090-VH1 + U0959FD090-VL3

- Kd (human CD47 protein [2]): 555 pM
- koff (human CD47 protein [2]): 0.00305 s⁻¹
- kon (human CD47 protein [2]): 5.49e+06 M⁻¹ s⁻¹
B6: VH3+VL4 (antibody, human IgG4 S228P, kappa, V domains shown)
VH: B2 VH with A68V, M70L, K74T
VL: B2 VL with T22S, A43T, P44V, F71Y, Y87F
notes: Humanized IgG, hIgG4 CH (S228P) and human kappa CL; leader residues 1-19 of each entry left out; Tested from supernatant; also called U0959FD090-VH3 + U0959FD090-VL4

- Kd (human CD47 protein [2]): 591 pM
- koff (human CD47 protein [2]): 0.00287 s⁻¹
- kon (human CD47 protein [2]): 4.85e+06 M⁻¹ s⁻¹
B8: VH4+VL3 (antibody, human IgG4 S228P, kappa, V domains shown)
VH: B2 VH
VL: B2 VL with P44V, F71Y, Y87F
notes: Humanized IgG, hIgG4 CH (S228P) and human kappa CL; leader residues 1-19 of each entry left out; Tested from supernatant; also called U0959FD090-VH4 + U0959FD090-VL3

- Kd (human CD47 protein [1]): 872 pM
- koff (human CD47 protein [1]): 0.0023 s⁻¹
- kon (human CD47 protein [1]): 2.64e+06 M⁻¹ s⁻¹
B10: VH1-PTM+VL1 (antibody, human IgG4 S228P, kappa, V domains shown)
VH: B2 VH with K38R, L48M, D56E, C64S, A68V, S72R, K74T
VL: B2 VL
notes: Purified humanized IgG with PTM sites removed, hIgG4 CH (S228P) and human kappa CL; leader residues 1-19 of each entry left out; also called U0959FD090-VH1-PTM + U0959FD090-VL1

- Kd (human CD47 protein [2]): 638 pM
- koff (human CD47 protein [2]): 0.00378 s⁻¹
- kon (human CD47 protein [2]): 5.93e+06 M⁻¹ s⁻¹
B12: VH3+VL2 (antibody, human IgG4 S228P, kappa, V domains shown)
VH: B2 VH with A68V, M70L, K74T
VL: B2 VL with P44V, Y87F
notes: Humanized IgG, hIgG4 CH (S228P) and human kappa CL; leader residues 1-19 of each entry left out; Tested from supernatant; also called U0959FD090-VH3 + U0959FD090-VL2

- Kd (human CD47 protein [2]): 597 pM
- koff (human CD47 protein [2]): 0.00348 s⁻¹
- kon (human CD47 protein [2]): 5.83e+06 M⁻¹ s⁻¹
B13: VH2+VL3 (antibody, human IgG4 S228P, kappa, V domains shown)
VH: B2 VH with K38R, K74T
VL: B2 VL with P44V, F71Y, Y87F
notes: Humanized IgG, hIgG4 CH (S228P) and human kappa CL; leader residues 1-19 of each entry left out; Tested from supernatant; also called U0959FD090-VH2 + U0959FD090-VL3

More lines, now with the values behind:

B1: VH1-PTM+VL3 (antibody, human IgG4 S228P, kappa, V domains shown)
VH: B2 VH with K38R, L48M, D56E, C64S, A68V, S72R, K74T
VL: B2 VL with P44V, F71Y, Y87F
notes: Purified humanized IgG with PTM sites removed, hIgG4 CH (S228P) and human kappa CL; leader residues 1-19 of each entry left out; also called U0959FD090-VH1-PTM + U0959FD090-VL3
- Kd (human CD47 protein [1]): 458 pM
- koff (human CD47 protein [1]): 0.0016 s⁻¹
- kon (human CD47 protein [1]): 3.49e+06 M⁻¹ s⁻¹

B4: VH4+VL4 (antibody, human IgG4 S228P, kappa, V domains shown)
VH: B2 VH
VL: B2 VL with T22S, A43T, P44V, F71Y, Y87F
notes: Humanized IgG, hIgG4 CH (S228P) and human kappa CL; leader residues 1-19 of each entry left out; Tested from supernatant; also called U0959FD090-VH4 + U0959FD090-VL4
- Kd (human CD47 protein [2]): 553 pM
- koff (human CD47 protein [2]): 0.00278 s⁻¹
- kon (human CD47 protein [2]): 5.02e+06 M⁻¹ s⁻¹

B5: VH1+VL2 (antibody, human IgG4 S228P, kappa, V domains shown)
VH: B2 VH with K38R, L48M, A68V, S72R, K74T
VL: B2 VL with P44V, Y87F
notes: Humanized IgG, hIgG4 CH (S228P) and human kappa CL; leader residues 1-19 of each entry left out; Tested from supernatant; also called U0959FD090-VH1 + U0959FD090-VL2
- Kd (human CD47 protein [2]): 368 pM
- koff (human CD47 protein [2]): 0.00159 s⁻¹
- kon (human CD47 protein [2]): 4.32e+06 M⁻¹ s⁻¹

B7: VH2+VL4 (antibody, human IgG4 S228P, kappa, V domains shown)
VH: B2 VH with K38R, K74T
VL: B2 VL with T22S, A43T, P44V, F71Y, Y87F
notes: Humanized IgG, hIgG4 CH (S228P) and human kappa CL; leader residues 1-19 of each entry left out; Tested from supernatant; also called U0959FD090-VH2 + U0959FD090-VL4
- Kd (human CD47 protein [2]): 585 pM
- koff (human CD47 protein [2]): 0.00332 s⁻¹
- kon (human CD47 protein [2]): 5.67e+06 M⁻¹ s⁻¹

B9: VH2+VL1 (antibody, human IgG4 S228P, kappa, V domains shown)
VH: B2 VH with K38R, K74T
VL: B2 VL
notes: Humanized IgG, hIgG4 CH (S228P) and human kappa CL; leader residues 1-19 of each entry left out; Tested from supernatant; also called U0959FD090-VH2 + U0959FD090-VL1
- Kd (human CD47 protein [2]): 1000 pM
- koff (human CD47 protein [2]): 0.00648 s⁻¹
- kon (human CD47 protein [2]): 6.47e+06 M⁻¹ s⁻¹

B11: VH1-PTM+VL2 (antibody, human IgG4 S228P, kappa, V domains shown)
VH: B2 VH with K38R, L48M, D56E, C64S, A68V, S72R, K74T
VL: B2 VL with P44V, Y87F
notes: Purified humanized IgG with PTM sites removed, hIgG4 CH (S228P) and human kappa CL; leader residues 1-19 of each entry left out; also called U0959FD090-VH1-PTM + U0959FD090-VL2
- Kd (human CD47 protein [1]): 556 pM
- koff (human CD47 protein [1]): 0.00193 s⁻¹
- kon (human CD47 protein [1]): 3.46e+06 M⁻¹ s⁻¹
